This note sets out measurements from patent publication US20260193366A1 (APOGEE THERAPEUTICS, published 2026).

To fix the notation:
B1: Construct 18 (mAb426) (antibody, IgG4, V domains shown)
VH: EVQLVESGGGLEQPGGSLRLSCAGSGFTFRDFAMTWVRQAPGKGLEWVSSISGSGDNTYYADSVKGRFTISRDNSKNTLYLQMNSLRAEDTAVYYCAKDRLSKTIRPRYYGLDVWGQGTTVTVSS
VL: DIVMTQSPLSLPVTPGEPASISCTSSQSLLYSIGKNYVDWYLQKSGQSPQLLIYLGNKRASGVPDRFSGSGSGTDFTLKISRVEAEDVGFYYCMQSLTSPYTFGQGTKLEIK
notes: VH/VL only
B2: Construct 22 (mAb430) (antibody, IgG4, V domains shown)
VH: B1 VH with D56S, N57S, K103V, I105V
VL: B1 VL with T24R, L29V, K35Y
notes: VH/VL only
B3: Construct 19 (mAb427) (antibody, IgG4, V domains shown)
VH: B1 VH with D31T, F32Y, L101V, K103I
VL: B1 VL with K35Y, S96A, T98G
notes: VH/VL only
B4: Construct 26 (mAb434) (antibody, IgG4, V domains shown)
VH: B1 VH with S54G, D56G, N57S, K103I, T104A, I105V
VL: B1 VL with S25A, K35Y
notes: VH/VL only
B5: Construct 25 (mAb433) (antibody, IgG4, V domains shown)
VH: B1 VH with T58I
VL: B1 VL with S25A, K35Y, V38L, L55E
notes: VH/VL only
B6: Construct 20 (mAb428) (antibody, IgG4, V domains shown)
VH: B1 VH with K103I, I105V
VL: B1 VL with K35Y, T98Q, S99T, T102V
notes: VH/VL only
B7: Construct 21 (mAb429) (antibody, IgG4, V domains shown)
VH: B1 VH with D31T, F32Y, D56G, T58I, L101V, K103I, T104Y, I105V
VL: B1 VL with S25A, K35Y, N57S
notes: VH/VL only
B8: Construct 27 (mAb435) (antibody, IgG4, V domains shown)
VH: B1 VH with R30T, D56G, T58K, K103V, I105V
VL: B1 VL with S25A, K35Y
notes: VH/VL only
B9: Construct 23 (mAb431) (antibody, V domains shown)
VH: B1 VH with S54G, D56G, N57S, K103V, I105V
VL: B1 VL with T24R, L29V, N57S, K58Q, S61T
notes: VH/VL only

Numbering of substitutions follows the chain as printed.

As usually defined, the Kd is the equilibrium constant for the complex coming apart.

The target of the first assay is T1, human IL-4Rα (human, UniProt P24394 26-232).
T1 construct: also called Hu IL-4Rα; hIL-4Rα
T1 sequence: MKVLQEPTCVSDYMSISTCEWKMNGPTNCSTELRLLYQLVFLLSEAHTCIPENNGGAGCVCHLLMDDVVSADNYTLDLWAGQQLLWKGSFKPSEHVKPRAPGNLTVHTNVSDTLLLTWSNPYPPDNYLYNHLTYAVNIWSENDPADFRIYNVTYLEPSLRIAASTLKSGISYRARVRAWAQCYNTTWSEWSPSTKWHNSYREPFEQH
As to the kind of experiment: SPR, Carterra LSA. (In SPR one partner is held on a chip, and binding of the other changes the refractive index at the surface.)
Experimental: (§1) Binding affinity (KD) of antibodies to human and cynomolgus monkey IL-4Rα was determined through surface plasmon resonance (SPR) using a Carterra LSA. Briefly, an HC30M sensor chip that was previously functionalized with a polyclonal mixture of goat anti-human Fc antibody and used to capture purified antibodies at a level between 100-1000 RLU. […] Regeneration of the chip between different concentrations of antigen was performed with 200 mM phosphoric acid and antibody was captured again as previously described. Association and dissociation rate constants were subsequently determined through fitting to a 1:1 Langmuir binding model using the Kinetics Software from Carterra from which a KD value was derived.
Consider B1, for which the “KD Relative to Dupilumab” value was 2.65 and the Kd was 0.03 nM.
For B2, in that order: 0.77 and 0.00866 nM.
For B3, in that order: 3.19 and 0.036 nM.
The like results for B4 were, in that order, 0.78 and 0.00883 nM.
Take B5: the “KD Relative to Dupilumab” value was 0.94 and the Kd turned out to be 0.0107 nM.
For B6, in that order: 1.41 and 0.0159 nM.
B7: the “KD Relative to Dupilumab” value came out at 0.76 and the Kd turned out to be 0.00857 nM.
For B8, in that order: 1.12 and 0.0126 nM.
For B9, in that order: 0.67 and 0.00762 nM.

In a further assay the target is T2, cynomolgus monkey IL-4Rα (cynomolgus monkey, UniProt P24394 26-231 (human entry), limits assumed).
T2 construct: also called Cyno IL-4Rα; cyIL-4Rα
T2 chain: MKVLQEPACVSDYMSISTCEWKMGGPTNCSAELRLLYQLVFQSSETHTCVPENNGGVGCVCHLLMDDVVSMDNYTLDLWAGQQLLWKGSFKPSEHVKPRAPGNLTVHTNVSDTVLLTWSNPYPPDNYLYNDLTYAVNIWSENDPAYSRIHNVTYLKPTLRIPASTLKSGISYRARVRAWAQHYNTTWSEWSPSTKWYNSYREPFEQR
As to the kind of experiment: SPR, Carterra LSA.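 Note: antibodies captured on an anti-human Fc sensor chip, antigen injected at several concentrations, association and dissociation rates fitted with a 1:1 Langmuir model.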
Experimental: as §1
For B1, the “KD Relative to Dupilumab” value amounted to 0.09 and binding was put at a Kd of 58 nM.
As for B2, the “KD Relative to Dupilumab” value was determined as 0.05 and the Kd worked out at 28.7 nM.
For B3, in that order: 0.08 and 50.2 nM.
For B4, in that order: 0.26 and 166 nM.
The like results for B5 were, in that order, 1.12 and 703 nM.
For the molecule B6, the “KD Relative to Dupilumab” value is 0.13 and the Kd came to 80.8 nM.
For B7, in that order: 0.02 and 14.4 nM.
In the case of B8, the “KD Relative to Dupilumab” value was determined as 0.28 and the affinity, expressed as Kd, was 176 nM.
The like results for B9 were, in that order, 0.1 and 63.3 nM.

The next assay deals with T3, hIL-4Rα on cells (human, UniProt P24394 26-825).
T3 sequence: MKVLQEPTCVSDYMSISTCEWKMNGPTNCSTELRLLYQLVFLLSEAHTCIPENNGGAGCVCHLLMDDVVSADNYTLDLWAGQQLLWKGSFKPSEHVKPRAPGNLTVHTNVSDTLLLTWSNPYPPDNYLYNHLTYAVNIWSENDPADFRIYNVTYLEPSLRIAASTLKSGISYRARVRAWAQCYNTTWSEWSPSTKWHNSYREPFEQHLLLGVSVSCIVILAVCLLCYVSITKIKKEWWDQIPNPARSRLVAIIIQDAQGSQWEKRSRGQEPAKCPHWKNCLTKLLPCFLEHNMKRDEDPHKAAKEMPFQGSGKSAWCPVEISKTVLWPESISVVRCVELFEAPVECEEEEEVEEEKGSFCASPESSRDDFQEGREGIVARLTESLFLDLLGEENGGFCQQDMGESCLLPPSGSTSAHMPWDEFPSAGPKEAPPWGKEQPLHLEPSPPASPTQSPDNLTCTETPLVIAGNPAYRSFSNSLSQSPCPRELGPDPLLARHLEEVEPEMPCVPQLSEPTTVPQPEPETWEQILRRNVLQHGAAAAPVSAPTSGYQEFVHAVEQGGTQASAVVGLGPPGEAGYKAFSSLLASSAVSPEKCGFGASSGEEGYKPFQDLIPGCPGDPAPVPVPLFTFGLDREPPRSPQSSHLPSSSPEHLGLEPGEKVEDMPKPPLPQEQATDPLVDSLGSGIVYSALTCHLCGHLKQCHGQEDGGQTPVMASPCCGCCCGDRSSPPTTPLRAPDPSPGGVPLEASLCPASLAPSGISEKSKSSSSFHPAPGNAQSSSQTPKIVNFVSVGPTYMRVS
Put plainly: cell-based or functional assay.
For the molecule B1, the “Relative Inhibition of IL-4 induced pSTAT6 IC50” value was 0.517 relative to dupilumab and the “Relative Inhibition of IL-13 induced pSTAT6 IC50” value was 0.446 relative to dupilumab.
For B2, in that order: 0.749 relative to dupilumab and 0.612 relative to dupilumab.
The like results for B3 were, in that order, 0.844 relative to dupilumab and 0.885 relative to dupilumab.
Turning to B4, the “Relative Inhibition of IL-4 induced pSTAT6 IC50” value was 0.661 relative to dupilumab and the “Relative Inhibition of IL-13 induced pSTAT6 IC50” value is 0.627 relative to dupilumab.
The like results for B5 were, in that order, 1.33 relative to dupilumab and 1.82 relative to dupilumab.
The like results for B6 were, in that order, 1.28 relative to dupilumab and 1.86 relative to dupilumab.
For B7, in that order: 0.305 relative to dupilumab and 0.447 relative to dupilumab.
Turning to B8, the “Relative Inhibition of IL-4 induced pSTAT6 IC50” value is 0.676 relative to dupilumab and the “Relative Inhibition of IL-13 induced pSTAT6 IC50” value was 0.38 relative to dupilumab.
The like results for B9 were, in that order, 0.483 relative to dupilumab and 0.475 relative to dupilumab.

The next assay deals with T3, hIL-4Rα on cells. As to the kind of experiment: cell-based or functional assay. The source holds these as a separate data set.
With B1, the “Relative Inhibition of IL-4 induced TARC IC50” value was 0.407 relative to dupilumab and the “Relative Inhibition of IL-13 induced TARC IC50” value is 0.447 relative to dupilumab.
The like results for B2 were, in that order, 0.488 relative to dupilumab and 0.535 relative to dupilumab.
The like results for B3 were, in that order, 0.756 relative to dupilumab and 0.834 relative to dupilumab.
The like results for B4 were, in that order, 0.763 relative to dupilumab and 1.73 relative to dupilumab.
B5: the “Relative Inhibition of IL-4 induced TARC IC50” value was 1.17 relative to dupilumab and the “Relative Inhibition of IL-13 induced TARC IC50” value is 1.78 relative to dupilumab.
For B6, in that order: 3.63 relative to dupilumab and 1.83 relative to dupilumab.
The like results for B7 were, in that order, 0.342 relative to dupilumab and 0.313 relative to dupilumab.
For B8, in that order: 0.547 relative to dupilumab and 1.83 relative to dupilumab.
In the case of B9, the “Relative Inhibition of IL-4 induced TARC IC50” value was 0.557 relative to dupilumab and the “Relative Inhibition of IL-13 induced TARC IC50” value was 0.579 relative to dupilumab.

The next assay addresses T3, hIL-4Rα on cells. As to the kind of experiment: cell-based or functional assay. The source holds these as a separate data set.
In the case of B1, the “Relative Inhibition of IL-4 induced TF-1 Proliferation IC50” value is 0.626 relative to dupilumab and the “Relative Inhibition of IL-13 induced TF-1 Proliferation IC50” value is 0.606 relative to dupilumab.
For B2, in that order: 0.746 relative to dupilumab and 0.495 relative to dupilumab.
The like results for B3 were, in that order, 0.835 relative to dupilumab and 0.55 relative to dupilumab.
For B4, in that order: 0.7 relative to dupilumab and 0.83 relative to dupilumab.
Take B5: the “Relative Inhibition of IL-4 induced TF-1 Proliferation IC50” value is 2.04 relative to dupilumab and the “Relative Inhibition of IL-13 induced TF-1 Proliferation IC50” value was 1.31 relative to dupilumab.
With B6, the “Relative Inhibition of IL-4 induced TF-1 Proliferation IC50” value is 1.12 relative to dupilumab and the “Relative Inhibition of IL-13 induced TF-1 Proliferation IC50” value was 1.38 relative to dupilumab.
For B7, in that order: 0.509 relative to dupilumab and 0.498 relative to dupilumab.
For B8, in that order: 0.962 relative to dupilumab and 0.773 relative to dupilumab.
As to B9, the “Relative Inhibition of IL-4 induced TF-1 Proliferation IC50” value is 0.823 relative to dupilumab and the “Relative Inhibition of IL-13 induced TF-1 Proliferation IC50” value is 0.732 relative to dupilumab.

The next assay has as its target T3, hIL-4Rα on cells. As to the kind of experiment: FACS on HEK293 cells, competitor biotin-hIL-4.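 Note: HEK293 cells stably co-expressing hIL-13Rα and hIL-4Rα, stained for 1 h at 4 °C, read-out as mean fluorescence intensity by flow cytometry.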
In the case of B1, the “Relative Blockade of IL-4 Binding IC50” value is 0.85 relative to dupilumab.
Still for that read-out and setting: the same measure for B2: 0.829 relative to dupilumab; for B3: 0.867 relative to dupilumab.
The same measure, in the same setting: the same measure for B4: 0.763 relative to dupilumab; for B5: 1.36 relative to dupilumab.
Same read-out and setting: in the case of B6 it was 1.44 relative to dupilumab.
Take B7: the “Relative Blockade of IL-4 Binding IC50” value was 0.749 relative to dupilumab.
Still for that read-out and setting: in the case of B8 it was 0.99 relative to dupilumab; in that of B9, 1.07 relative to dupilumab.

A further assay addresses T3, hIL-4Rα on cells. As to the kind of experiment: FACS on HEK293 cells, competitor biotin-hIL-13.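 Note: stably transduced cells co-expressing both receptor chains, stained cold, with cell-bound signal read as mean fluorescence intensity by flow cytometry.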
For B1, the “Relative Blockade of IL-13 Binding IC50” value is 0.813 relative to dupilumab.
On the same count and under the same terms, in the case of B2 it was 0.785 relative to dupilumab; in that of B3, 1.02 relative to dupilumab.
For B4, the “Relative Blockade of IL-13 Binding IC50” value was 0.486 relative to dupilumab.
The same measure, in the same setting: in the case of B5 it was 1.09 relative to dupilumab; in that of B6, 1.14 relative to dupilumab; in that of B7, 0.706 relative to dupilumab.
Same read-out and setting: the same measure for B8: 0.592 relative to dupilumab.
Same read-out and setting: the same measure for B9: 0.793 relative to dupilumab.
